Results from US20200237923A1.

target: TNFR1 on L929 cells (UniProt P25118); assay: cell-based or functional assay
UniProt P25118, sequence (P25118 30-454 limits assumed): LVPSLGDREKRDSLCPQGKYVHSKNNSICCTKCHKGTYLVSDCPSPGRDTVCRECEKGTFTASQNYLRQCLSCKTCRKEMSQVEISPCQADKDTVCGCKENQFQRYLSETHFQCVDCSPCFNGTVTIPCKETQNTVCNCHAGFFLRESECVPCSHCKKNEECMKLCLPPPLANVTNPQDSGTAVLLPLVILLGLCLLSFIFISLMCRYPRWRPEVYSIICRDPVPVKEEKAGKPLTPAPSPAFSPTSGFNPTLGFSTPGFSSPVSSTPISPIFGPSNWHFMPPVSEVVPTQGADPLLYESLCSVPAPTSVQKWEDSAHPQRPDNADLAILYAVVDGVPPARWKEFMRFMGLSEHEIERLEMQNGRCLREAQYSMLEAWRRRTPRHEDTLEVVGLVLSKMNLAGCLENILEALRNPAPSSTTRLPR

| Substance | EC50 of cytotoxic activity against L929 cells [ng/mL] | loss of activity against unmodified scTNF-α (L929 cytotoxicity) [fold] |
| --- | --- | --- |
| PRINT PEG5K scTNF-α (N-terminally mono-PEGylated with PEG-5000) (ligand) | 0.00058 |  |
| PRINT PEG20K scTNF-α (N-terminally PEGylated with PEG-20000) (ligand) | 0.00062 |  |
| citraconylated scTNF-α (lysine side chains globally blocked with citraconic anhydride) (ligand) | 0.0076 |  |
| randomly PEGylated scTNF-α (direct conjugation with PEG NHS ester) (ligand) | 0.0046 | 10 |
| unmodified single-chain TNF-α (scTNF-α), His tag cleaved (ligand) | 0.00035 |  |
